Test results from publication PMC5507626 (Structure (London, England : 1993), 2017).

Assays:
crystal structure = target: the molecule itself; experiment: crystal structure
SEC = target: the molecule itself; experiment: SEC

B1: TPR(2-142) F113M (domain or fragment, human, UniProt P12270 2-142, looked up)
chain: AAVLQQVLERTELNKLPKSVQNKLEKFLADQQSEIDGLKGRHEKFKVESEQQYFEIEKRLSHSQERLVNETRECQSLRLELEKLNNQLKALTEKNKELEIAQDRNIAIQSQMTRTKEELEAEKRDLIRTNERLSQELEYLT
modifications: selenomethionine (SeMet construct)
Crystal structure
  stoichiometry N: 4

B2: TPR(2-142) F55M/F113M (domain or fragment, human, UniProt P12270 2-142, looked up)
chain: AAVLQQVLERTELNKLPKSVQNKLEKFLADQQSEIDGLKGRHEKFKVESEQQYMEIEKRLSHSQERLVNETRECQSLRLELEKLNNQLKALTEKNKELEIAQDRNIAIQSQMTRTKEELEAEKRDLIRTNERLSQELEYLT
modifications: selenomethionine (SeMet construct)
SEC
  stoichiometry N: 4
Crystal structure
  stoichiometry N: 2
